From patent US20190241648A1 (STATEN BIOTECHNOLOGY B V, published 2019)
Ends that are not written are not given here.

Legend:
Experiment in all cases: peptide microarray
ApoC3 peptide … G41A = molecular target: T1, ApoC3 peptide … G41A (human, also: cyclic constrained)
T1 peptide: ARAWVTDGFSSLK
In short: (§1)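 Peptide microarrays of ApoC3-derived peptides incubated with antibody samples, then stained with goat anti-human IgG (Fc) DyLight680 (1:5000) and anti-HA DyLight800 (1:2000) control. Read-out by fluorescence scanning at intensities 7/7 (red/green); a secondary-only pre-stain checked background, HA frame peptides served as quality control.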

ApoC3 peptide … W42A = molecular target: T2, ApoC3 peptide … W42A (human, not fully specified (bridges); also: cyclic constrained)
T2 peptide: ARGAVTDGFSSLK
In short: as §1

ApoC3 peptide … V43A = molecular target: T3, ApoC3 peptide … V43A (human, not fully specified; cyclic constrained)
T3 peptide: ARGWATDGFSSLK
In short: as §1

ApoC3 peptide … A39C = molecular target: T4, ApoC3 peptide … A39C (human, cyclic constrained)
T4 peptide: CRGWVTDGFSSLK
In short: as §1

ApoC3 peptide … R40E = molecular target: T5, ApoC3 peptide … R40E (human, not fully specified (bridges); also: cyclic constrained)
T5 peptide: AEGWVTDGFSSLK
In short: as §1

ApoC3 peptide … W42E = molecular target: T6, ApoC3 peptide … W42E (human, not fully specified (bridges); also: cyclic constrained)
T6 peptide: ARGEVTDGFSSLK
In short: as §1

ApoC3 peptide … V43E = molecular target: T7, ApoC3 peptide … V43E (human, not fully specified; cyclic constrained)
T7 peptide: ARGWETDGFSSLK
In short: as §1

ApoC3 peptide … L50E = molecular target: T8, ApoC3 peptide … L50E (human, not fully specified; cyclic constrained)
T8 peptide: ARGWVTDGFSSEK
In short: as §1

ApoC3 peptide … V43F = molecular target: T9, ApoC3 peptide … V43F (human, not fully specified; cyclic constrained)
T9 peptide: ARGWFTDGFSSLK
In short: as §1

ApoC3 peptide … G46F = molecular target: T10, ApoC3 peptide … G46F (human, not fully specified (bridges); also: cyclic constrained)
T10 peptide: ARGWVTDFFSSLK
In short: as §1

ApoC3 peptide … R40G = molecular target: T11, ApoC3 peptide … R40G (human, not fully specified (bridges); also: cyclic constrained)
T11 peptide: AGGWVTDGFSSLK
In short: as §1

ApoC3 peptide … V43G = molecular target: T12, ApoC3 peptide … V43G (human, not fully specified; cyclic constrained)
T12 peptide: ARGWGTDGFSSLK
In short: as §1

ApoC3 peptide … S49G = molecular target: T13, ApoC3 peptide … S49G (human, cyclic constrained)
T13 peptide: ARGWVTDGFSGLK
In short: as §1

ApoC3 peptide … K51G = molecular target: T14, ApoC3 peptide … K51G (human, thioether (positions not given here); also: cyclic constrained)
T14 peptide: ARGWVTDGFSSLG
In short: as §1

ApoC3 peptide … W42H = molecular target: T15, ApoC3 peptide … W42H (human, not fully specified (bridges); also: cyclic constrained)
T15 peptide: ARGHVTDGFSSLK
In short: as §1

ApoC3 peptide … G46H = molecular target: T16, ApoC3 peptide … G46H (human, not fully specified (bridges); also: cyclic constrained)
T16 peptide: ARGWVTDHFSSLK
In short: as §1

ApoC3 peptide … S48H = ApoC3 peptide … S48H (human, cyclic constrained)
In short: as §1

ApoC3 peptide … T44I = molecular target: T17, ApoC3 peptide … T44I (human, not fully specified (bridges); also: cyclic constrained)
T17 peptide: ARGWVIDGFSSLK
In short: as §1

ApoC3 peptide … G41K = molecular target: T18, ApoC3 peptide … G41K (human, also: cyclic constrained)
T18 peptide: ARKWVTDGFSSLK
In short: as §1

ApoC3 peptide … D45K = molecular target: T19, ApoC3 peptide … D45K (human, cyclic constrained)
T19 peptide: ARGWVTKGFSSLK
In short: as §1

ApoC3 peptide … F47K = molecular target: T20, ApoC3 peptide … F47K (human, not fully specified (bridges); also: cyclic constrained)
T20 peptide: ARGWVTDGKSSLK
In short: as §1

ApoC3 peptide … T44L = molecular target: T21, ApoC3 peptide … T44L (human, not fully specified (bridges); also: cyclic constrained)
T21 peptide: ARGWVLDGFSSLK
In short: as §1

ApoC3 peptide … A39N = molecular target: T22, ApoC3 peptide … A39N (human, cyclic constrained)
T22 peptide: NRGWVTDGFSSLK
In short: as §1

ApoC3 peptide … R40N = molecular target: T23, ApoC3 peptide … R40N (human, not fully specified (bridges); also: cyclic constrained)
T23 peptide: ANGWVTDGFSSLK
In short: as §1

ApoC3 peptide … V43P = molecular target: T24, ApoC3 peptide … V43P (human, not fully specified (bridges); also: cyclic constrained)
T24 peptide: ARGWPTDGFSSLK
In short: as §1

ApoC3 peptide … T44Q = molecular target: T25, ApoC3 peptide … T44Q (human, not fully specified (bridges); also: cyclic constrained)
T25 peptide: ARGWVQDGFSSLK
In short: as §1

ApoC3 peptide … G46Q = molecular target: T26, ApoC3 peptide … G46Q (human, not fully specified (bridges); also: cyclic constrained)
T26 peptide: ARGWVTDQFSSLK
In short: as §1

ApoC3 peptide … K51R = molecular target: T27, ApoC3 peptide … K51R (human, not fully specified; cyclic constrained)
T27 peptide: ARGWVTDGFSSLR
In short: as §1

ApoC3 peptide … A39T = molecular target: T28, ApoC3 peptide … A39T (human, not fully specified (bridges); also: cyclic constrained)
T28 peptide: TRGWVTDGFSSLK
In short: as §1

ApoC3 peptide … D45V = molecular target: T29, ApoC3 peptide … D45V (human, cyclic constrained)
T29 peptide: ARGWVTVGFSSLK
In short: as §1

ApoC3 peptide … D45W = molecular target: T30, ApoC3 peptide … D45W (human, cyclic constrained)
T30 peptide: ARGWVTWGFSSLK
In short: as §1

B1: anti-ApoC3 antibody 14C7 (antibody, V domains shown)
VH: QVQVQESGPGLVKPSQTLSLTCTVSGGSITTNSYYWSWIRQPPGKGLEWMGAIDYSGDTYYSPSLKSRTSISRDTSKNQFTLQLTSVTPEDTAVYYCVSRIPTGEYWGQGTQVTVSS
VL: QTVVTQEPSLSVSPGGTVTLTCGLNSGSVTSSNYPDWYQQTPGQAPRLLIYNTNSRHSGVPSRFSGSISGNKAALTITGAQPEDEADYYCALYMGSDSVVFGGGTHLTVL
notes: it was detected with goat anti-human IgG (Fc); also called mAb 14C7; llama antibody 14C7
With B1 the “% of binding to wild-type peptide” value (ApoC3 peptide … G41A) was 7.01%, the “% of binding to wild-type peptide” value (ApoC3 peptide … W42A) was 116% and the “% of binding to wild-type peptide” value (ApoC3 peptide … V43A) was 26.9%. For the same binder, the “% of binding to wild-type peptide” value (ApoC3 peptide … A39C) was 77.5%, the “% of binding to wild-type peptide” value (ApoC3 peptide … R40E) was 76.9% and the “% of binding to wild-type peptide” value (ApoC3 peptide … W42E) was 98.5%. The “% of binding to wild-type peptide” value (ApoC3 peptide … V43E) was 0%, the “% of binding to wild-type peptide” value (ApoC3 peptide … L50E) was 0% and the “% of binding to wild-type peptide” value (ApoC3 peptide … V43F) was 68.9%. For the same binder, the “% of binding to wild-type peptide” value (ApoC3 peptide … G46F) was 0.86%, the “% of binding to wild-type peptide” value (ApoC3 peptide … R40G) was 62.9% and the “% of binding to wild-type peptide” value (ApoC3 peptide … V43G) was 0.12%. For the same binder, the “% of binding to wild-type peptide” value (ApoC3 peptide … S49G) was 0%, the “% of binding to wild-type peptide” value (ApoC3 peptide … K51G) was 5.77% and the “% of binding to wild-type peptide” value (ApoC3 peptide … W42H) was 48.6%. For the same binder, the “% of binding to wild-type peptide” value (ApoC3 peptide … G46H) was 1.81%, the “% of binding to wild-type peptide” value (ApoC3 peptide … S48H) was 11.5% and the “% of binding to wild-type peptide” value (ApoC3 peptide … T44I) was 1.86%. The “% of binding to wild-type peptide” value (ApoC3 peptide … G41K) was 18%, the “% of binding to wild-type peptide” value (ApoC3 peptide … D45K) was 39.4% and the “% of binding to wild-type peptide” value (ApoC3 peptide … F47K) was 0.12%. The “% of binding to wild-type peptide” value (ApoC3 peptide … T44L) was 0.5%, the “% of binding to wild-type peptide” value (ApoC3 peptide … A39N) was 103% and the “% of binding to wild-type peptide” value (ApoC3 peptide … R40N) was 64.8%. The “% of binding to wild-type peptide” value (ApoC3 peptide … V43P) was 1.86%, the “% of binding to wild-type peptide” value (ApoC3 peptide … T44Q) was 0% and the “% of binding to wild-type peptide” value (ApoC3 peptide … G46Q) was 0%. The “% of binding to wild-type peptide” value (ApoC3 peptide … K51R) was 57.4%, the “% of binding to wild-type peptide” value (ApoC3 peptide … A39T) was 88.7% and the “% of binding to wild-type peptide” value (ApoC3 peptide … D45V) was 1.21%. The “% of binding to wild-type peptide” value (ApoC3 peptide … D45W) was 0.06%.
